# Test results as given in US20140087995A1 (published 2014).
# Numbered stars: 1 amine (or outer) side, 2 acyl side, 3 side chain; on linkers, the order of the positions; unused ones are H or OH. Bridge positions count the residues as written; N and C are the ends. * marks the point of attachment. C20 diacid = O=C(O)CCCCCCCCCCCCCCCCCCC(=O)*; γGlu = O=C(O)[C@H](CCC(=O)[*:2])N[*:1]; AEEA = NCCOCCOCC(=O)O
# Molecular target: T1, human amylin receptor (amylin 3(a) receptor: human calcitonin receptor with RAMP-3) (human, UniProt P30988 25-474; O60896 24-148)
# T1 construct: whole, on cells; also called hAmylin-R; hAmylinR
# T1 sequence (looked up) 1: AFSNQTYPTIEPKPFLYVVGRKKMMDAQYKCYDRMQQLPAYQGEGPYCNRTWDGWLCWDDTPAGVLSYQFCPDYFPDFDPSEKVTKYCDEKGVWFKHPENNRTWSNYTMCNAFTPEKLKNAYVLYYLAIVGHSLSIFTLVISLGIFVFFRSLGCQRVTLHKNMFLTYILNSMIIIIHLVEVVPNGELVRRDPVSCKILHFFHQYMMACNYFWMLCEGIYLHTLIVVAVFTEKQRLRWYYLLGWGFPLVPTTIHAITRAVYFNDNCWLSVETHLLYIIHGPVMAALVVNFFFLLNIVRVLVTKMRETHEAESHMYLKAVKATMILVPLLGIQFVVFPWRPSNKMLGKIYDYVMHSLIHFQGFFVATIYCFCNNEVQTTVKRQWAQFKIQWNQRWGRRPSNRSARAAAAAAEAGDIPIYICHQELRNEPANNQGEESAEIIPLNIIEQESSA
# T1 sequence (looked up) 2: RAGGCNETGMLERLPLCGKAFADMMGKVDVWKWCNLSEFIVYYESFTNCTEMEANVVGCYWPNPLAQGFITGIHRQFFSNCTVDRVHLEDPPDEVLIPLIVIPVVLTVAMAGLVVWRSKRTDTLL
# Assay: SPA displacement of 125I-rat amylin, hAmylin 3(a) receptor membranes
# Description: The binding assay was performed using scintillation proximity assay (SPA) beads (RPNQ0001) from PerkinElmer and cell membranes from the Amylin 3(a)/CRE-luc cells (as described in Assay (II)) were used. Membranes were prepared in the following way; the cells were rinsed with PBS and incubated with Versene for approximately 5 min before harvesting. The cells were flushed with PBS and the cell-suspension was centrifuged for 5 min at 1000 rpm. Cells were homogenized (ultrathurrax) in a buffer containing 20 mM Na-HEPES and 10 mM EDTA (pH 7.4) and centrifuged at 20.000 rpm for 15 min. The resulting pellet was resuspended, homogenized and centrifuged (20.000 rpm, 15 min) in a buffer containing 20 mM Na-HEPES and 0.1 mM EDTA (pH 7.4, buffer 2). The resulting pellet was resuspended in buffer 2 and protein concentration was measured (BCA protein Assay, Pierce). The homogenate was kept cold during the whole procedure. The membranes were kept at −80° C. until use. The assay was performed in a 384 well Optiplate (PerkinElmer) in a total volume of 40 ul. Membranes were mixed with SPA beads. Final concentration of membranes 35 ng/μL final and SPA beads was 0.05 mg/well. Test-compounds were dissolved in DMSO and further diluted in assay buffer (50 mM Hepes, pH 7.4, 1 mM CaCl2, 5 mM MgCl₂, 0.1% OA and 0.02% Tween20). […] The final mixture was incubated with shaking at 400 rpm for 120 min at 25° C. prior to centrifugation (1500 rpm, 10 min). Samples were analyzed on TopCounter™ (Packard). The IC₅₀ was calculated using (one site binding competition analysis) GraphPad Prism5 as a measure of receptor affinity.
row,Binder,IC50 [nM]
1,"KCNTATCATQRLAEFLRHSSPNFGAIPSSTNVGSNTY (C20 diacid-gGlu-2xOEG on alpha amino group of N-terminal Lys 1; Cys2-Cys7 disulfide; C-terminal amide, also called 19; compound 19)",0.556
2,"{C20 diacid-γGlu-AEEA-AEEA}-KCNTATCATQRLAEFLRHSSPNFGAIPSSTNVGSNTP-NH2 (disulfide 2-7; SMILES CC[C@H](C)[C@H](NC(=O)[C@H](C)NC(=O)CNC(=O)[C@H](Cc1ccccc1)NC(=O)[C@H](CC(N)=O)NC(=O)[C@@H]1CCCN1C(=O)[C@H](CO)NC(=O)[C@H](CO)NC(=O)[C@H](Cc1c[nH]cn1)NC(=O)[C@H](CCCNC(=N)N)NC(=O)[C@H](CC(C)C)NC(=O)[C@H](Cc1ccccc1)NC(=O)[C@H](CCC(=O)O)NC(=O)[C@H](C)NC(=O)[C@H](CC(C)C)NC(=O)[C@H](CCCNC(=N)N)NC(=O)[C@H](CCC(N)=O)NC(=O)[C@@H](NC(=O)[C@H](C)NC(=O)[C@@H]1CSSC[C@H](NC(=O)[C@H](CCCCN)NC(=O)COCCOCCNC(=O)COCCOCCNC(=O)CC[C@H](NC(=O)CCCCCCCCCCCCCCCCCCC(=O)O)C(=O)O)C(=O)N[C@@H](CC(N)=O)C(=O)N[C@@H]([C@@H](C)O)C(=O)N[C@@H](C)C(=O)N[C@@H]([C@@H](C)O)C(=O)N1)[C@@H](C)O)C(=O)N1CCC[C@H]1C(=O)N[C@@H](CO)C(=O)N[C@@H](CO)C(=O)N[C@H](C(=O)N[C@@H](CC(N)=O)C(=O)N[C@H](C(=O)NCC(=O)N[C@@H](CO)C(=O)N[C@@H](CC(N)=O)C(=O)N[C@H](C(=O)N1CCC[C@H]1C(N)=O)[C@@H](C)O)C(C)C)[C@@H](C)O, also called 20; compound 20)",0.217
3,"{C20 diacid-γGlu}-KCNTATCATQRLANFLRHSSPNFGAIPSSTPVGSETY-NH2 (disulfide 2-7; SMILES CC[C@H](C)[C@H](NC(=O)[C@H](C)NC(=O)CNC(=O)[C@H](Cc1ccccc1)NC(=O)[C@H](CC(N)=O)NC(=O)[C@@H]1CCCN1C(=O)[C@H](CO)NC(=O)[C@H](CO)NC(=O)[C@H](Cc1c[nH]cn1)NC(=O)[C@H](CCCNC(=N)N)NC(=O)[C@H](CC(C)C)NC(=O)[C@H](Cc1ccccc1)NC(=O)[C@H](CC(N)=O)NC(=O)[C@H](C)NC(=O)[C@H](CC(C)C)NC(=O)[C@H](CCCNC(=N)N)NC(=O)[C@H](CCC(N)=O)NC(=O)[C@@H](NC(=O)[C@H](C)NC(=O)[C@@H]1CSSC[C@H](NC(=O)[C@H](CCCCN)NC(=O)CC[C@H](NC(=O)CCCCCCCCCCCCCCCCCCC(=O)O)C(=O)O)C(=O)N[C@@H](CC(N)=O)C(=O)N[C@@H]([C@@H](C)O)C(=O)N[C@@H](C)C(=O)N[C@@H]([C@@H](C)O)C(=O)N1)[C@@H](C)O)C(=O)N1CCC[C@H]1C(=O)N[C@@H](CO)C(=O)N[C@@H](CO)C(=O)N[C@H](C(=O)N1CCC[C@H]1C(=O)N[C@H](C(=O)NCC(=O)N[C@@H](CO)C(=O)N[C@@H](CCC(=O)O)C(=O)N[C@H](C(=O)N[C@@H](Cc1ccc(O)cc1)C(N)=O)[C@@H](C)O)C(C)C)[C@@H](C)O, also called 28; compound 28)",0.61
4,"{C20 diacid-γGlu}-KCNTATCATQRLAEFLRHSSPNFGPILPPTNVGSNTP-NH2 (disulfide 2-7; SMILES CC[C@H](C)[C@H](NC(=O)[C@@H]1CCCN1C(=O)CNC(=O)[C@H](Cc1ccccc1)NC(=O)[C@H](CC(N)=O)NC(=O)[C@@H]1CCCN1C(=O)[C@H](CO)NC(=O)[C@H](CO)NC(=O)[C@H](Cc1c[nH]cn1)NC(=O)[C@H](CCCNC(=N)N)NC(=O)[C@H](CC(C)C)NC(=O)[C@H](Cc1ccccc1)NC(=O)[C@H](CCC(=O)O)NC(=O)[C@H](C)NC(=O)[C@H](CC(C)C)NC(=O)[C@H](CCCNC(=N)N)NC(=O)[C@H](CCC(N)=O)NC(=O)[C@@H](NC(=O)[C@H](C)NC(=O)[C@@H]1CSSC[C@H](NC(=O)[C@H](CCCCN)NC(=O)CC[C@H](NC(=O)CCCCCCCCCCCCCCCCCCC(=O)O)C(=O)O)C(=O)N[C@@H](CC(N)=O)C(=O)N[C@@H]([C@@H](C)O)C(=O)N[C@@H](C)C(=O)N[C@@H]([C@@H](C)O)C(=O)N1)[C@@H](C)O)C(=O)N[C@@H](CC(C)C)C(=O)N1CCC[C@H]1C(=O)N1CCC[C@H]1C(=O)N[C@H](C(=O)N[C@@H](CC(N)=O)C(=O)N[C@H](C(=O)NCC(=O)N[C@@H](CO)C(=O)N[C@@H](CC(N)=O)C(=O)N[C@H](C(=O)N1CCC[C@H]1C(N)=O)[C@@H](C)O)C(C)C)[C@@H](C)O, also called compound 4)",0.321
5,"KCNTATCATQRLANFLRHSSPNFGAIPSSTNVGSETY (C20 diacid-gGlu on alpha amino group of N-terminal Lys 1; Cys2-Cys7 disulfide; C-terminal amide, also called 23; compound 23) [N^α1-[(4S)-4-carboxy-4-(19-carboxynonadecanoylamino)butanoyl]-[Arg17,Pro21,Pro27,Glu35]-h-amylin]",0.871
6,"KCNTATCATQRLANFLRHSSPNFGAIPSSTNVGHNTY (C20 diacid-gGlu on alpha amino group of N-terminal Lys 1; Cys2-Cys7 disulfide; C-terminal amide, also called 40; compound 40) [N^α1-[(4S)-4-carboxy-4-(19-carboxynonadecanoylamino)butanoyl]-[Arg17,Pro21,Pro27,His34]-h-amylin]",0.549
7,"KCNTATCATQRLANFLRHSSPNFGAIPSSTNVGRNTY (C20 diacid-gGlu on alpha amino group of N-terminal Lys 1; Cys2-Cys7 disulfide; C-terminal amide, also called 39; compound 39) [N^α1-[(4S)-4-carboxy-4-(19-carboxynonadecanoylamino)butanoyl]-[Arg17,Pro21,Pro27,Arg34]-h-amylin]",0.665
8,"{C20 diacid-γGlu}-KCNTATCATQRLAEFLRHSSPNFGPILPPTNVGSNTY-NH2 (disulfide 2-7; SMILES CC[C@H](C)[C@H](NC(=O)[C@@H]1CCCN1C(=O)CNC(=O)[C@H](Cc1ccccc1)NC(=O)[C@H](CC(N)=O)NC(=O)[C@@H]1CCCN1C(=O)[C@H](CO)NC(=O)[C@H](CO)NC(=O)[C@H](Cc1c[nH]cn1)NC(=O)[C@H](CCCNC(=N)N)NC(=O)[C@H](CC(C)C)NC(=O)[C@H](Cc1ccccc1)NC(=O)[C@H](CCC(=O)O)NC(=O)[C@H](C)NC(=O)[C@H](CC(C)C)NC(=O)[C@H](CCCNC(=N)N)NC(=O)[C@H](CCC(N)=O)NC(=O)[C@@H](NC(=O)[C@H](C)NC(=O)[C@@H]1CSSC[C@H](NC(=O)[C@H](CCCCN)NC(=O)CC[C@H](NC(=O)CCCCCCCCCCCCCCCCCCC(=O)O)C(=O)O)C(=O)N[C@@H](CC(N)=O)C(=O)N[C@@H]([C@@H](C)O)C(=O)N[C@@H](C)C(=O)N[C@@H]([C@@H](C)O)C(=O)N1)[C@@H](C)O)C(=O)N[C@@H](CC(C)C)C(=O)N1CCC[C@H]1C(=O)N1CCC[C@H]1C(=O)N[C@H](C(=O)N[C@@H](CC(N)=O)C(=O)N[C@H](C(=O)NCC(=O)N[C@@H](CO)C(=O)N[C@@H](CC(N)=O)C(=O)N[C@H](C(=O)N[C@@H](Cc1ccc(O)cc1)C(N)=O)[C@@H](C)O)C(C)C)[C@@H](C)O, also called compound 6)",0.996
9,"{C20 diacid-γGlu}-KCNTATCATQRLADFLRHSSPNFGAIPSSTNVGSNTP-NH2 (disulfide 2-7; SMILES CC[C@H](C)[C@H](NC(=O)[C@H](C)NC(=O)CNC(=O)[C@H](Cc1ccccc1)NC(=O)[C@H](CC(N)=O)NC(=O)[C@@H]1CCCN1C(=O)[C@H](CO)NC(=O)[C@H](CO)NC(=O)[C@H](Cc1c[nH]cn1)NC(=O)[C@H](CCCNC(=N)N)NC(=O)[C@H](CC(C)C)NC(=O)[C@H](Cc1ccccc1)NC(=O)[C@H](CC(=O)O)NC(=O)[C@H](C)NC(=O)[C@H](CC(C)C)NC(=O)[C@H](CCCNC(=N)N)NC(=O)[C@H](CCC(N)=O)NC(=O)[C@@H](NC(=O)[C@H](C)NC(=O)[C@@H]1CSSC[C@H](NC(=O)[C@H](CCCCN)NC(=O)CC[C@H](NC(=O)CCCCCCCCCCCCCCCCCCC(=O)O)C(=O)O)C(=O)N[C@@H](CC(N)=O)C(=O)N[C@@H]([C@@H](C)O)C(=O)N[C@@H](C)C(=O)N[C@@H]([C@@H](C)O)C(=O)N1)[C@@H](C)O)C(=O)N1CCC[C@H]1C(=O)N[C@@H](CO)C(=O)N[C@@H](CO)C(=O)N[C@H](C(=O)N[C@@H](CC(N)=O)C(=O)N[C@H](C(=O)NCC(=O)N[C@@H](CO)C(=O)N[C@@H](CC(N)=O)C(=O)N[C@H](C(=O)N1CCC[C@H]1C(N)=O)[C@@H](C)O)C(C)C)[C@@H](C)O, also called 10; compound 10)",0.082
